These results are taken from US20230331852A1 (OSE IMMUNOTHERAPEUTICS, published 2023).

The term IC50 denotes the concentration that inhibits the measured activity by half. Usually EC50 stands for the concentration that produces a half-maximal response. By Kd is commonly meant a measure of binding affinity in units of concentration. What is called koff is the rate constant with which the complex falls apart. In general, kon refers to the second-order rate constant of association. Usually EC50 (read off the curve) stands for the concentration needed to bring the measured effect to its halfway point.

Experiment [1] concerns the target T1, Fc-CLEC1 labelled with Alexa Fluor 488 (human, Alexa Fluor 488 label (sites not given)).
T1 construct: also called Fc-CLEC1-A488; Alexa488-Fc-Clec-1
T1 chain: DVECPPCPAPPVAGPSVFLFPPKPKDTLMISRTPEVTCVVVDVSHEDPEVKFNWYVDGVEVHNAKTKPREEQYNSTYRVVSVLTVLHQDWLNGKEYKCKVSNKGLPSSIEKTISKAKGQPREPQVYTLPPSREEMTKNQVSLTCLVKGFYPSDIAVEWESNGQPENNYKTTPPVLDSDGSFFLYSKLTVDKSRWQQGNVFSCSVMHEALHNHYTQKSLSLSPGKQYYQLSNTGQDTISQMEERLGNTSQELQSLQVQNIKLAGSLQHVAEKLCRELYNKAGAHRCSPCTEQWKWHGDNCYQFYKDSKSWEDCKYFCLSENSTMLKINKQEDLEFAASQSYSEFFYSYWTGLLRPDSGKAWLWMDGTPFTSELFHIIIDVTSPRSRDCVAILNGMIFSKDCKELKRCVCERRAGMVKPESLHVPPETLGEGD
Put plainly: FACS competition: blocks Fc-CLEC1-A488 (10 nM) binding to CLEC-1 ligand on permeabilised Raji cells; IC50 median. On the procedure:
(§1) To measure competition, purified anti-Clec antibodies at different concentrations were pre-incubated in Perm Wash Buffer with Alexa488-Fc-Clec-1 for 15 min at room temperature. Pre-incubated mixes were then incubated on permeabilized and Fc-blocked Raji cells for 30 min on ice. Binding on cells were then fixed by PFA 2% in cold PBS for 10 min on ice and analyzed on CytoFlex cytofluorometer (Beckman Coulter France, Villepinte).
(§2) Methods. To measure competition on permeabilised Raji (CytoFix/cytoperm kit, BD Biosciences) which expressed CLEC1 ligand, Fc-CLEC1-labelled A488 which bound specifically to permeabilised Raji was used. To measure competition, Fc-CLEC1 labelled A488 at 10 nM or 20 nM was mixed with mouse anti-hCLEC1 at different concentrations for 15 min at RT then added on these cells for 30 min at 4° C. […] To measure competition on PMBC, we used human PBMC pre-treated by UV for 18 h to obtain apoptotic PBMC, which expressed CLEC1 ligand. Fc-CLEC1-labelled A488 bound specifically apoptotic UV-treated PBMC. To measure competition, Fc-CLEC1 labelled A488 at 10 nM was mixed with mouse anti-hCLEC1 at different concentrations for 15 min at RT then added on these cells for 30 min at 4° C.

Experiment [2] deals with T2, recombinant human CLEC-1 protein with His Tag (#1704-CL R&D Systems) (human, UniProt Q8NC01 74-280).
T2 construct: Bought protein; also called His-CLEC1; His Clec-1; not shown: His tag
T2 sequence: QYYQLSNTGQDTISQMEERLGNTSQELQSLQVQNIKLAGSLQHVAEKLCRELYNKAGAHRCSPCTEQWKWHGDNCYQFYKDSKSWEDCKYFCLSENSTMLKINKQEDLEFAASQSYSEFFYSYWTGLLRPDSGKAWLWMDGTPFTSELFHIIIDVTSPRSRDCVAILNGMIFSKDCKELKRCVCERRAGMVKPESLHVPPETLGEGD
Put plainly: ELISA on immobilised His-CLEC1 (from FIGURE 14). On the procedure: (§3) Method: The binding activity of the anti-hCLEC1 antibodies was assessed by ELISA (Enzyme-linked immunosorbent assay). […] A second ELISA assays was performed, like above, with immobilization of CLEC1-Fc (OSE Immunotherapeutics) at 2 μg/ml. A third ELISA assays was performed to see the cross-reactivity with mouse CLEC1. Like above, ELISA was made with immobilization of mouse Fc-CLEC1 (OSE Immunotherapeutics) at 2 μg/ml in carbonate buffer instead of His-Clec. Purified antibodies were added at different concentrations to measure binding. […] Control antibody is a commercial anti-CLEC-1A antibody.

For experiment [3], the target named is T3, human CLEC-1A expressed on the cell membrane (human, UniProt Q8NC01 1-280).
T3 construct: Endogenous on human U266 myeloma cells, on monocyte-derived TGFb-DC and macrophages; on CHO cells after transduction with a Clec-1 expressing lentivirus; also called U266 CLEC1; CLEC-1A on U266 cells
T3 sequence: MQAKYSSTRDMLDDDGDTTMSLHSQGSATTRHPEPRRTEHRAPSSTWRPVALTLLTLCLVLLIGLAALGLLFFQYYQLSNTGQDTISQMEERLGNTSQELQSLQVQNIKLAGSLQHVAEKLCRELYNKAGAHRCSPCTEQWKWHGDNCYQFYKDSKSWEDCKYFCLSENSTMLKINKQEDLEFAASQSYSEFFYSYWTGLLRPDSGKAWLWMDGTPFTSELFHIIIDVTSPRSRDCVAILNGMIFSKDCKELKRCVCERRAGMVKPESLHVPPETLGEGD
Put plainly: flow cytometry on U266 cells. On the procedure:
(§4) Method: To measure binding of anti-CLEC1 on human U266 cell lines (pre-blocked with Fcblock to blocking FcR), antibodies at different concentrations were incubated for 30 min at 4° C., and washed before stained 30 min at 4° C. with PE-labelled anti-human IgG (Biolegend; reference 409304). Samples were analyzed on Cytoflex cytofluorometer (Beckman Coulter). The MFI of anti-CLEC1 was compared between all anti-CLEC1 antibodies and percentage of stained cells was analysed in all conditions.

In experiment [4] the target is T2, recombinant human CLEC-1 protein with …. Put plainly: Blitz biolayer interferometry, His-CLEC1 on Ni-NTA biosensor, antibody at 20 ug/mL.
For experiment [5], the target named is T3, human CLEC-1A expressed on the cell …. As to the kind of experiment: flow cytometry on CHO-Clec-1 cells (from FIGURE 21). On the procedure:
To measure binding of anti-clec on CHO-Clec-1 cells, human Fc Receptor Binding Inhibitor diluted at 1/200 (BD pharmingen; USA; reference 564220) was first added for 30 min at room-temperature to block human Fc receptors on CHO-Clec-1 cells to reduce background. Then, antibodies were incubated for 30 min at 4° C., and washed before stained 15 min at 4° C. with PE-labelled anti-human IgG Fc (Biolegend; USA; reference 409303). Samples were analyzed on citoflex (Beckman coulter)

The target in experiment [6] is T2, recombinant human CLEC-1 protein with …. Put plainly: ELISA on immobilised His-CLEC1 (from FIGURE 12). On the procedure:
as §3

The target in experiment [7] is T1, Fc-CLEC1 labelled with Alexa Fluor 488. Put plainly: FACS competition: blocks Fc-CLEC1-A488 (10 nM) binding to CLEC-1 ligand on UV-treated PBMC. The method, then: (§5) Competition were also measured on UV pre-treated pro-apoptotic human PBMCs, which can also express the ligand after a treatment under UV radiation for 18 hours. After UV treatment, cells were first washed in cold-PSE and then blocked during 30 min at room temperature with human Fc-block 50-fold diluted in PSE, and then replaced on ice. Purified anti-Clec antibodies at different concentrations were pre-incubated with Alexa488-Fc-Clec-1 in PSE at different concentrations for 15 min at room temperature. Pre-incubated mixes were then incubated on Fc-blocked/SAB (#34005-100, Invitrogen, Illkirch, France) pro-apoptotic PBMCs for 30 min on ice. Binding on cells were then fixed by PFA 2% in cold PBS for 10 min on ice and analyzed on CytoFlex cytofluorometer (Beckman Coulter France, Villepinte).
as §2

Experiment [8] addresses T2, recombinant human CLEC-1 protein with …. As to the kind of experiment: BLI (Blitz), CLEC1-His on Ni-NTA biosensor, antibody at 20 ug/mL; chimeric antibody, FIG. 17. The method, then:
Analysis was performed with a BLItz System (Fortébio, #C22-2 No 61010-1, Molecular Devices, San José, USA).
The affinity of the anti-hCLEC1 antibodies, was measured with Blitz system (Forté Bio, C22-2 No 61010-1).

Experiment [9] deals with T1, Fc-CLEC1 labelled with Alexa Fluor 488. As to the kind of experiment: FACS competition: blocks Fc-CLEC1-A488 (10 nM) binding to CLEC-1 ligand on permeabilised Raji cells; % binding cells. On the procedure: as §1, §2
In experiment [10] the target is T3, human CLEC-1A expressed on the cell …. Put plainly: flow cytometry on U266 cells, PE anti-human IgG; % positive cells. On the procedure:
as §4
For orientation: A flow cytometer gives signals particle by particle.

Experiment [11] concerns the target T1, Fc-CLEC1 labelled with Alexa Fluor 488. Put plainly: FACS competition: blocks Fc-CLEC1-A488 (10 nM) binding to CLEC-1 ligand on UV-treated PBMC; % binding. The method, then:
as §5, §2

Experiment [12] concerns the target T3, human CLEC-1A expressed on the cell …. Put plainly: flow cytometry on U266 cells, PE anti-human IgG; median fluorescence. The method, then:
as §4

For experiment [13], the target named is T2, recombinant human CLEC-1 protein with …. As to the kind of experiment: ELISA on immobilised His-CLEC1, anti-human IgG peroxidase. (ELISA stands for enzyme-linked immunosorbent assay.)

B1: chimeric anti-CLEC-1A antibody 11H11 (antibody, human IgG4 S228P, kappa, V domains shown)
VH: QIHLVQSGPELKKPGETVKISCKASGYTFTNFGMNWVKQAPGKGLKWMGWINTNTGEPTYADDFKGRFAFSLETSASTAYLQINNLKNEDTATYFCARGAPAWFTYWGQGTLVTVSA
VL: DIQMTQSPASLSASVGETVTITCRATENIYSYLAWYQQKQGKSPQFLVYNAKTLAEGMPSRFSGSGSGTQFSLKINILQPEDFGTYYCQHHFGTPLTFGAGTKLELKR
notes: also called 11H11chim; 11H11-VHwt-FcG4m / 11H11-VLwt-CLhk
Turning to B1, the IC50 in experiment [1] is 5.84 nM. Also, the EC50 in experiment [2] amounted to 0.00846 µg/mL; in experiment [3], 1.12 µg/mL; in experiment [5], 1.38 µg/mL. Moreover, the Kd in experiment [4] turned out to be 0.448 nM. Further, in experiment [4], the koff came out at 0.00019 s⁻¹. Further, in experiment [4], the kon worked out at 188000 M⁻¹ s⁻¹.

B2: chimeric anti-CLEC-1A antibody 5D1 (antibody, human IgG4 S228P, kappa, V domains shown)
VH: QVQLKESGPGLVAPSQSLSITCTISGFSLTSYGVHWVRQPPGKGLEWLVVIWSDGSTIYNSALKSRLSISKDNSKSQVFLKMNSLQTDDTAMYYCARHGGYYNYFDYWGQGTTLTVSS
VL: DIQMNQSPSSLSASLGDTITITCHASQNINVWLSWYQQKPGNIPKLLIYKASNLHTGVPSRFSGSGSGTGFTLTISSLQPEDIATYYCQQGQSYWTFGGGTKLEIKR
notes: also called 5D1chim; 5D1-VHwt-FcG4m / 5D1-VLwt-CLhk
For the molecule B2, the 50% effective concentration (EC50) in experiment [6] was 0.164 µg/mL; in [3], 0.0847 µg/mL. The concentration for half-maximal inhibition (IC50) was 1.19 µg/mL in experiment [7] and 13.7 nM in experiment [1]. Also, the equilibrium dissociation constant (Kd) in [8] was around 10 nM; in experiment [4], 17.4 nM. Moreover, the “IC50 (read off the curve)” value in experiment [9] was around 10 nM; in experiment [11], around 0.8 µg/mL. Further, the concentration for a half-maximal effect (EC50 (read off the curve)) in [10] and in experiment [12] was around 0.06 µg/mL throughout. For the same molecule, the koff in experiment [4] came to 0.0012 s⁻¹. In addition, the kon in experiment [4] is 68900 M⁻¹ s⁻¹.

B3: chimeric anti-CLEC-1A antibody 15E3 (antibody, human IgG4 S228P, kappa, V domains shown)
VH: QVQLQQSGPELVKPGASVKMSCKASGFTFTDYVIAWVKVRTGQGLEWIGEIYPGSGSIYYNEKFKGKATLTADKSSNTAYMQLSSLTSEDSAVYFCASSTVVAFDYWGQGTTLTVSS
VL: EIVLTQSPTTLAASPGEKIIITCSDSSSISSNYLHWYQQKPGFSPKLLIYGTSNLASGVPARFSGSGSGTTYSLTIGTMEAEDVATYYCQQGSSIPRTFGGGTKLEIKR
notes: also called 15E3chim; 15E3-VHwt-FcG4m / 15E3-VLwt-CLhk
For the molecule B3, the EC50 was 0.0215 µg/mL in experiment [6], 0.251 µg/mL in experiment [3] and 0.123 µg/mL in [5]. In addition, the IC50 in experiment [7] was 0.779 µg/mL; in experiment [1] it was 8.67 nM. The “EC50 (read off the curve)” value in experiment [13] was around 0.02 µg/mL. Further, the Kd in experiment [4] was found to be 108 nM. Moreover, the off-rate constant (koff) in experiment [4] is 0.00169 s⁻¹. The kon in experiment [4] worked out at 15700 M⁻¹ s⁻¹. Moreover, the “IC50 (read off the curve)” value in experiment [11] is around 1 µg/mL.
